In this experiment the target is FIII9–10 mutant Ala5, GST fusion protein (human). The experiment is described as follows: SPR. (SPR reads the build-up and loss of mass on a sensor chip optically.)

A word on the Kd: it is the constant that tells how readily two partners part at equilibrium. A lower Kd goes with a tighter complex.

Substance “integrin α5β1 (from UniProt P05556 21-798) (receptor)” returned a Kd of 63 nM.

Values taken from article PMC1626583.
